Laboratory results taken from paper PMC4753449, “Conformational plasticity of RepB, the replication initiator protein of promiscuous streptococcal plasmid pMV158” (Scientific Reports, 2016).

How the values were obtained:
[1] = target: the molecule itself; experiment: SAXS; free RepB in solution at 20, 40 and 83 μM RepB6 (12.1, 5.8 and 2.9 mg/mL); 10 mM TRIS pH 8.5, 5 mM EDTA, 1.0 M KCl
[2] = target: the molecule itself; experiment: AUC; sedimentation equilibrium, 20 °C, 20 mM NaH2PO4 pH 7.0, 150 mM NaCl; OBD 10-60 μM at 22,000 rpm, OD 10-100 μM at 13,000 rpm; single-species model

B1: RepB, rolling-circle replication initiator protein of plasmid pMV158 (hexamer) (natural protein, UniProt P13921 1-210, looked up)
chain: MAKEKARYFTFLLYPESIPSDWELKLETLGVPMAISPLHDKDKSSIKGQKYKKAHYHVLYIAKNPVTADSVRKKIKLLLGEKSLAMVQVVLNVENMYLYLTHESKDAIAKKKHVYDKADIKLINNFDIDRYVTLDVEEKTELFNVVVSLIRAYTLQNIFDLYDFIDENGETYGLTINLVNEVIAGKTGFMKLLFDGAYQRSKRGTKNEER
notes: RepB, replication initiator protein encoded by the promiscuous plasmid pMV158, originally isolated from Streptococcus agalactiae; 24 kDa polypeptide; OBD (N-terminal) and OD (C-terminal) domains; the OD construct ends at residue 210; The final model of 4U87 comprises residues 3-204 of three protomers in the asymmetric unit; also called RepB6; RepB hexamer
- stoichiometry N [1]: 6

B2: RepB OD (oligomerisation domain, residues 127 to 210) (domain or fragment, UniProt P13921 127-210, looked up)
chain: DIDRYVTLDVEEKTELFNVVVSLIRAYTLQNIFDLYDFIDENGETYGLTINLVNEVIAGKTGFMKLLFDGAYQRSKRGTKNEER
notes: RepB of plasmid pMV158 (Streptococcus agalactiae), oligomerisation domain, residues 127 to 210; theoretical mass of the hexamer 58,300 Da; also called OD-only construct; OD hexamer; source: Escherichia coli M15, purified (Ni-NTA agarose), His-tag removed with TAGZyme; not shown: His6, N-terminal, cleaved
- stoichiometry N [2]: 6
